We go through one molecule from patent publication US20090191117A1 (published 2009).

As usually defined, the Kd is the free concentration of one partner at which half of the binding sites on the other are occupied at equilibrium, for simple one-to-one binding. A lower Kd goes with higher affinity. The EC50 is the concentration giving half of the maximal effect. A lower EC50 goes with higher potency in that assay.

The target in test [1] is T1, αvβ5 integrin on HT-29 human colon carcinoma cells (human, UniProt P06756 31-1048; P18084 24-799).
T1 construct: whole, on cells; also called HT-29 cells; HT29 cells
Kind of test: 125-I antibody saturation binding to HT-29 cells.
Procedure: (§1) Cells were plated 2 days prior to experiment, and 1×10⁵ cells/well at the time of study. […] Nonspecific binding was determined using 100× cold mAb in media. Cells were washed 3× and counted for bound radioactivity. Each curve represents 4-5 separate studies, and each data point in an experiment was the mean of triplicate samples.

The target of test [2] is T2, human αVβ5 integrin, purified (human, UniProt P06756 31-1048; P18084 24-799).
T2 construct: Bought from Chemicon (Triton or octyl formulation); also called alphaVbeta5; aVb5
Kind of test: saturation binding ELISA on αvβ5 coated plate, non-linear fit, six experiments.
Procedure: (§2) αᵥβ₃ or αᵥβ₅ integrin was diluted to 1 μg/ml in Tris-buffered saline (TBS, 10 mM Tris, 100 mM NaCl, pH 7.5) containing 2 mM calcium chloride (TBS/Ca⁺⁺) and coated at 50 μl per well onto 96 well polystyrene Linbro plates (Flow/ICN) overnight at 4° C. Plates were washed with TBS/Ca⁺⁺ and blocked with 1% bovine serum albumin (BSA) in TBS/Ca⁺⁺ for 1 h at room temperature. Fifty microliters of diluted antibody was added in triplicate to coated wells and incubated for 2 h at 37° C. […] Plates were washed three times, and developed with o-phenylenediamine dihydrochloride substrate solution (OPD, Sigma) consisting of 0.1 M citric acid, 0.2M sodium phosphate, 0.01% H₂O₂ and 1 mg/ml OPD. Color development was stopped after 15 min at room temperature with 0.3 N H₂SO₄, and plates were read at OD₄₉₀ nm in the Molecular Dynamics plate reader.

In test [3] the target is T3, integrin a5b1 from human placenta extract (human, UniProt P08648 42-1049; P05556 21-798).
T3 construct: mature; only the a5 subunit was probed; also called a5 containing heterodimers
Kind of test: CNTO 95 affinity column on human placenta extract, Western blot with anti-integrin a5.
Procedure: (§3) Western blot. […] The filters were blocked with 5% nonfat dry milk in TBS containing 0.05% Tween 20 (wash buffer) at room temperature for 1 hour and then incubated with anti-integrin antibodies (anti-a5 (P-19) Santa Cruz, goat polyclonal IgG 1:500 dilution; anti-aIIb, Chemicon, mouse monoclonal IgG1, 1:1000 dilution; anti-αV (Q-20), Santa Cruz, goat polyclonal IgG, 1:500 dilution; anti-b1 (4B7R), Santa Cruz, mouse monoclonal IgG1, 1:500 dilution; anti-b1 (N-20), Santa Cruz, goat polyclonal IgG, 1:500 dilution; anti-β3 (H-96), Santa Cruz, rabbit polyclonal IgG, 1:500 dilution; anti-β5 (H-96), Santa Cruz, rabbit polyclonal IgG, 1:500 dilution; anti-β6 (H-110), Santa Cruz, rabbit polyclonal IgG, 1:250 dilution). After thorough washing, filters were incubated with appropriate peroxidase-conjugated secondary antibodies (1:20000 dilution). The antigen-antibody complexes were visualized using SuperSignal West Pico Chemiluminescent Substrate kit (Pierce).

For test [4], the target named is T2, human αVβ5 integrin, purified. Kind of test: saturation binding ELISA on αvβ5 coated plate, non-linear fit, n = 6.
Procedure: as §2
Test [5] concerns the target T4, human αVβ3 integrin, purified (human, UniProt P06756 31-1048; P05106 27-788).
T4 construct: mature; Detergent-extracted heterodimer purified from human placenta at Centocor, or bought from Chemicon; coated on plates or in solution; also called alphaVbeta3; aVb3
Briefly: saturation binding ELISA on αvβ3 coated plate, non-linear fit, n = 6. For orientation: ELISA stands for enzyme-linked immunosorbent assay.
Procedure: as §2

Test [6] addresses T1, αvβ5 integrin on HT-29 human colon …. Kind of test: 125-I antibody saturation binding to HT-29 cells, rounded value.
Procedure: as §1
In test [7] the target is T2, human αVβ5 integrin, purified. Briefly: comparison of the KD values on integrin coated plates.
Test [8] addresses T4, human αVβ3 integrin, purified. Briefly: EIA, purified antibody titrated on αVβ3 coated plates.
Test [9] concerns the target T1, αvβ5 integrin on HT-29 human colon …. Briefly: 125-I antibody saturation binding to HT-29 cells, n = 5.
Procedure: as §1
Test [10] has as its target T5, integrin aIIbb3 from human placenta extract (human, UniProt P08514 32-1039; P05106 27-788).
T5 construct: mature; only the aIIb subunit was probed; also called aIIbβ3; GPIIb/IIIa
Briefly: CNTO 95 affinity column on human placenta extract, Western blot with anti-aIIb. On the technique in general: Immunoblotting shows a protein as a band on a membrane.
Procedure: as §3

T1 sequence (P06756 31-1048, chain 1 of 2): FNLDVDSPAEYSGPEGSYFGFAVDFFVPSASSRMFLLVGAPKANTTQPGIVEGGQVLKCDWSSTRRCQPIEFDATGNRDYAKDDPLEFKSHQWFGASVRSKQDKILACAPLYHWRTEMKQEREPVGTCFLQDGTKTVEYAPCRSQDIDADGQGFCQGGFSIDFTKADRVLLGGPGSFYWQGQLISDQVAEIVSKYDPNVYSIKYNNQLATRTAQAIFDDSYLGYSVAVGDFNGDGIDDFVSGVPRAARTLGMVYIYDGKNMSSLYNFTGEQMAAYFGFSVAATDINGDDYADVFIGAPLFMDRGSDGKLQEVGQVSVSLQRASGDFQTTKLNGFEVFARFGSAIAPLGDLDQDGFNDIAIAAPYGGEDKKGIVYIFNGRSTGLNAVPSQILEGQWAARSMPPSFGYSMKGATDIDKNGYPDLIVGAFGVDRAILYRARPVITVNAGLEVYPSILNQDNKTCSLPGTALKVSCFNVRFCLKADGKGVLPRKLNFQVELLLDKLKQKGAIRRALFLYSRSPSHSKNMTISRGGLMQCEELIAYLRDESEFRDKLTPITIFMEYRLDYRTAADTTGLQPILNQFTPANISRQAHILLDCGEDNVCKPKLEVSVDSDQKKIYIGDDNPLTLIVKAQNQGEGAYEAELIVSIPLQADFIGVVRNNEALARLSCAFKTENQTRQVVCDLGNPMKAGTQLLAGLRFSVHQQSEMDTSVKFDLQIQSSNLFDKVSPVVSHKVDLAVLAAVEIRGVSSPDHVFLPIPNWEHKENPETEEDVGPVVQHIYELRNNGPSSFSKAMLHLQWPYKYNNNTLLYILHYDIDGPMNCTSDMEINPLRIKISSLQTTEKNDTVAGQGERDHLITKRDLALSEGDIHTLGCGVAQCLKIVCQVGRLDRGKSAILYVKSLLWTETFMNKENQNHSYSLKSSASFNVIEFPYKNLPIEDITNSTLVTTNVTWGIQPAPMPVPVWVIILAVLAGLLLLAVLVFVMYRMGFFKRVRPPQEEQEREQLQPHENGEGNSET
T1 sequence (P18084 24-799, chain 2 of 2): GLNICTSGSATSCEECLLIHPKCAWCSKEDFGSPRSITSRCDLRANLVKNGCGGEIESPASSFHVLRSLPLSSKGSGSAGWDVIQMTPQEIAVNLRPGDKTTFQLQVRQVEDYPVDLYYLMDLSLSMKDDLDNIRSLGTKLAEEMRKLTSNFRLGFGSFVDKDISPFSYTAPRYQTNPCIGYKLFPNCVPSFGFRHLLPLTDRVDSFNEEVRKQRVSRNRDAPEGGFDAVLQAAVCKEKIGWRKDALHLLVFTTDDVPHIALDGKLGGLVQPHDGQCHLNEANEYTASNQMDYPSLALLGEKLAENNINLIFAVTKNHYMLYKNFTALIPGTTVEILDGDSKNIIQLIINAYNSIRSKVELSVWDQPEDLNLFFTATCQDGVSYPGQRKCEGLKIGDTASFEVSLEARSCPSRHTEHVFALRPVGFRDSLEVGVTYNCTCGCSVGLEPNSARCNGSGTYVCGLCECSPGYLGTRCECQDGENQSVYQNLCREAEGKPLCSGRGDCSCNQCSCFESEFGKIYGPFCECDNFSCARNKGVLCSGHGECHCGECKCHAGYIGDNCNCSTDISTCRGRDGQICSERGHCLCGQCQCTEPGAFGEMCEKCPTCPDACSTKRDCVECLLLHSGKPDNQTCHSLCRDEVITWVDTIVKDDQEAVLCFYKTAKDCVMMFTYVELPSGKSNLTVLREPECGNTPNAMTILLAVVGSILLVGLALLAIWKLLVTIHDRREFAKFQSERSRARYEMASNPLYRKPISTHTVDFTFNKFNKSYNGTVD
T2 sequence (P06756 31-1048, form in doubt, chain 1 of 2): as the sequence (P06756 31-1048, chain 1 of 2) above
T2 sequence (P18084 24-799, form in doubt, chain 2 of 2): as the sequence (P18084 24-799, chain 2 of 2) above
T4 sequence (P06756 31-1048, form in doubt, chain 1 of 2): as the sequence (P06756 31-1048, chain 1 of 2) above
T4 sequence (P05106 27-788, form in doubt, chain 2 of 2): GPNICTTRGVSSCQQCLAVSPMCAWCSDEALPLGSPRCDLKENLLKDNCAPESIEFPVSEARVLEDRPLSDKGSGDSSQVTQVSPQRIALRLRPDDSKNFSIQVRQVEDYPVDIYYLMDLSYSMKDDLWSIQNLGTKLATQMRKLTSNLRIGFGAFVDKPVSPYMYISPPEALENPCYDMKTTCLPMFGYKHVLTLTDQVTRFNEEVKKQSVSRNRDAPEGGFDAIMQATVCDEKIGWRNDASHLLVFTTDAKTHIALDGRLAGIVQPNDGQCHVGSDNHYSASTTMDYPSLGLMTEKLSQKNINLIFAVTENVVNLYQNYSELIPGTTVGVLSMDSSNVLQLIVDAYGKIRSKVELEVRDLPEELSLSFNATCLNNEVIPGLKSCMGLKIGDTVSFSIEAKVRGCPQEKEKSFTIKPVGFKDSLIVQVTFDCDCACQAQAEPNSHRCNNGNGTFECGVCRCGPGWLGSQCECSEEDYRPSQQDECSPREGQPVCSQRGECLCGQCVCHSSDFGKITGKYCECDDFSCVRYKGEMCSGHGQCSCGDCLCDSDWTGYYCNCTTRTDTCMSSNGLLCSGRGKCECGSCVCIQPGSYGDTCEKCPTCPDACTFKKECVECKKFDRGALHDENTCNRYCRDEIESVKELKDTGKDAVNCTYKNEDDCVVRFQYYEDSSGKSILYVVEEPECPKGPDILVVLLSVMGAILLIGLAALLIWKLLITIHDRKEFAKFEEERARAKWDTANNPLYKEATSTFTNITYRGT
T3 sequence (P08648 42-1049, chain 1 of 2): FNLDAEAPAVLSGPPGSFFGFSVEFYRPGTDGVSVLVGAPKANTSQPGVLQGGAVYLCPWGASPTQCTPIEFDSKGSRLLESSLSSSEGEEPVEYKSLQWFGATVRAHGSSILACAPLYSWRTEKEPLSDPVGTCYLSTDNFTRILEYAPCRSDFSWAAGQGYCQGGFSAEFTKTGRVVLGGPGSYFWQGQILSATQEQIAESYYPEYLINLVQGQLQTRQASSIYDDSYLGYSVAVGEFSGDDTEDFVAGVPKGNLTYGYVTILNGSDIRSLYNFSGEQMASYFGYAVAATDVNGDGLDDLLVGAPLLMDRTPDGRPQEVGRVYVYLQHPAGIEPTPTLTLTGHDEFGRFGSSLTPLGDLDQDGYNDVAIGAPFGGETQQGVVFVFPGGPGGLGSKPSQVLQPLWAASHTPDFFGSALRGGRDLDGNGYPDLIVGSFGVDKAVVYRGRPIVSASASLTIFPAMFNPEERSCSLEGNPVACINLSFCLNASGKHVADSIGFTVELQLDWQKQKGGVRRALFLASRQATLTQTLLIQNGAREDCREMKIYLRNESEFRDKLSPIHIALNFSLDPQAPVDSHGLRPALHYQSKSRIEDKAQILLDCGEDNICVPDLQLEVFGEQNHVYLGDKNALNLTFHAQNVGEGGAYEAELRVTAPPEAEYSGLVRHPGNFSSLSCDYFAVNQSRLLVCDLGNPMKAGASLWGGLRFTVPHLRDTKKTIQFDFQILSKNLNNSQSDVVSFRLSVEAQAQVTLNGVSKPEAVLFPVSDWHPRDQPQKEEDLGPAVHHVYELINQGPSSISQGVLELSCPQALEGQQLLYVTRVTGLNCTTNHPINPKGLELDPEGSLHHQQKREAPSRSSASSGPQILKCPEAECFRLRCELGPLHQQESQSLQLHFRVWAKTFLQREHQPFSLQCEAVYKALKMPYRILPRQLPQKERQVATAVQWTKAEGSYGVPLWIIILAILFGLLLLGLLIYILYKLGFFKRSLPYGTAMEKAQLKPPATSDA
T3 sequence (P05556 21-798, chain 2 of 2): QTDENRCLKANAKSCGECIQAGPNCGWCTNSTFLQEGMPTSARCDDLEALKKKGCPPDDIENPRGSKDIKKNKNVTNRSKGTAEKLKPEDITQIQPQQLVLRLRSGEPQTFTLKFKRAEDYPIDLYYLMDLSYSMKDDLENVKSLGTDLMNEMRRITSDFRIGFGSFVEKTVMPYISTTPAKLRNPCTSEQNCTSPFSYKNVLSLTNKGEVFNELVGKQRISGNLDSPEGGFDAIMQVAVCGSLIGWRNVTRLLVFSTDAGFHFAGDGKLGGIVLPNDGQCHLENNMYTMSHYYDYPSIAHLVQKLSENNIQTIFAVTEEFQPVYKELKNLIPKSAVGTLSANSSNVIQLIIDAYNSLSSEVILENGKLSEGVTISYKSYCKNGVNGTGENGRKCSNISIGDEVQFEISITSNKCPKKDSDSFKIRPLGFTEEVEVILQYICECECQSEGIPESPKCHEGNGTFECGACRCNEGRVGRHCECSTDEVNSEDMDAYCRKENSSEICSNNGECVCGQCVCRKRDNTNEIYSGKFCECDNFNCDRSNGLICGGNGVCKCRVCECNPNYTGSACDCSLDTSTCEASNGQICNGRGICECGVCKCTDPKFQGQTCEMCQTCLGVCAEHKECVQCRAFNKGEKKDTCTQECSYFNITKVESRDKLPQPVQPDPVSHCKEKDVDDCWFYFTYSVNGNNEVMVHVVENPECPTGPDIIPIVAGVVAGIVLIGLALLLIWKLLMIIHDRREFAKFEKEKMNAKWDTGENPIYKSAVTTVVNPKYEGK

B1: CNTO 95 (antibody, V domains shown)
VH: QVQLVESGGGVVQPGRSRRLSCAASGFTFSRYTMHWVRQAPGKGLEWVAVISFDGSNKYYVDSVKGRFTISRDNSENTLYLQVNILRAEDTAVYYCAREARGSYAFDIWGQGTMVTVSS
VL: EIVLTQSPATLSLSPGERATLSCRASQSVSSYLAWYQQKPGQAPRLLIYDASNRATGIPARFSGSGSGTDFTLTISSLEPEDFAVYYCQQRSNWPPFTFGPGTKVDIK
notes: Fully human IgG1 kappa from a transgenic mouse hybridoma; also called GenO95; C371A
On to B1, for which the Kd is 0.13 nM in test [1]; 0.025 nM in [2]; 0.25 nM in [4]; 0.21 nM in test [5]; 1 nM in test [6]; 1.3 nM in [9]. For the same molecule, the binding result in test [3] and in [10] was “no binding” in each case. Also, in [7], the “fold higher affinity than for αvβ3 purified integrin” value is ~8 fold. For the same molecule, the EC50 in test [8] stood at 0.7 µg/mL.
